Blank lines part the entries; values can stand above or below the molecule they belong to. Where no end group is shown, it is not given here. [ ]: non-standard residue; d: D form. pY = N[C@@H](Cc1ccc(OP(=O)(O)O)cc1)C(=O)O
Legend:
[1] = target: T1, recombinant human STAT3 SH2 domain (Homo sapiens, UniProt P40763); assay: AlphaScreen SH2 binding assay, STAT3
T1 construct: Full-length cDNAs were obtained from a human cDNA library by PCR; Avi-tag (biotinylated in BirA-BL21) (N); made in house; host or cells: Escherichia coli BirA-BL21
T1 sequence (P40763 whole entry, the tested form may be a part): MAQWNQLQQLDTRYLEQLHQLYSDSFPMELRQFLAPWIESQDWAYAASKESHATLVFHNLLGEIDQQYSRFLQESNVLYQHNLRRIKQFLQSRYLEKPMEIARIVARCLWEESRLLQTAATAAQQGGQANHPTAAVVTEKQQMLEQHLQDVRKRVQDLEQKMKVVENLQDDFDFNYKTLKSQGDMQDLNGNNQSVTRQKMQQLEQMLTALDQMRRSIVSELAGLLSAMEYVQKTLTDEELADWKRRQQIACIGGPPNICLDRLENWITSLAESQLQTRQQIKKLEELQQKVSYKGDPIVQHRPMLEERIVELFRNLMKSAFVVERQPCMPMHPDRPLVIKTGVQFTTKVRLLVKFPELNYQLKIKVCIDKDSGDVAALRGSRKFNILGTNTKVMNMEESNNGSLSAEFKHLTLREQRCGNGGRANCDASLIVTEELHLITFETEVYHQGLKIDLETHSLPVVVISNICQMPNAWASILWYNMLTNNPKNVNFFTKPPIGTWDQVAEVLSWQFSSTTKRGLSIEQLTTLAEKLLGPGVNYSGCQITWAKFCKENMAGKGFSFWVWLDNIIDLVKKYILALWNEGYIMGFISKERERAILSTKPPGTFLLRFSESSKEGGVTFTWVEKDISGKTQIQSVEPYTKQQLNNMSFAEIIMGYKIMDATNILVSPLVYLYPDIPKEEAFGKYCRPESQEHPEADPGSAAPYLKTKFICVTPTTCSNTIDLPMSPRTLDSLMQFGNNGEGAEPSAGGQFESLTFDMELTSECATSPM
Procedure: AlphaScreen assays were performed in a final reaction volume of 25 μL of the assay buffer, containing 10 mM HEPES-NaOH (pH 7.4), 50 mM NaCl, 1 mM EDTA (pH 8.0), 0.1% NP-40, and 10 ng/mL BSA in a 96-well microtiter plate at 25°C. The labeled Phospho-Tyr (pTyr) peptide probe was 5-carboxyfluorescein (FITC)-GpYLPQTV for STAT3, FITC-GpYDKPHVL for STAT1, and FITC-PSpYVNVQN for Grb2. A DMSO solution of BENDA was incubated with 50 nM of each SH2-containing protein for 15 min, 50 nM of the corresponding FITC-pTyr peptide was added, and the mixture was incubated for 90 min. Streptavidin-coated donor beads and anti-FITC acceptor beads were added and incubated for 90 min before the signals were measured with an Envision Xcite plate reader (PerkinElmer Life Sciences, Waltham, MA, USA).

[2] = target: T2, cellular STAT3 in MDA-MB-468 cells (Homo sapiens, UniProt P40763); assay: Pull-down assay using Bio-BENDA, anti-STAT3 immunoprecipitation; assay type: cell-based; settings: 50 μM Bio-BENDA, 4 h
T2 construct: endogenous in cells; host or cells: MDA-MB-468
T2 sequence (P40763 2-770 limits assumed): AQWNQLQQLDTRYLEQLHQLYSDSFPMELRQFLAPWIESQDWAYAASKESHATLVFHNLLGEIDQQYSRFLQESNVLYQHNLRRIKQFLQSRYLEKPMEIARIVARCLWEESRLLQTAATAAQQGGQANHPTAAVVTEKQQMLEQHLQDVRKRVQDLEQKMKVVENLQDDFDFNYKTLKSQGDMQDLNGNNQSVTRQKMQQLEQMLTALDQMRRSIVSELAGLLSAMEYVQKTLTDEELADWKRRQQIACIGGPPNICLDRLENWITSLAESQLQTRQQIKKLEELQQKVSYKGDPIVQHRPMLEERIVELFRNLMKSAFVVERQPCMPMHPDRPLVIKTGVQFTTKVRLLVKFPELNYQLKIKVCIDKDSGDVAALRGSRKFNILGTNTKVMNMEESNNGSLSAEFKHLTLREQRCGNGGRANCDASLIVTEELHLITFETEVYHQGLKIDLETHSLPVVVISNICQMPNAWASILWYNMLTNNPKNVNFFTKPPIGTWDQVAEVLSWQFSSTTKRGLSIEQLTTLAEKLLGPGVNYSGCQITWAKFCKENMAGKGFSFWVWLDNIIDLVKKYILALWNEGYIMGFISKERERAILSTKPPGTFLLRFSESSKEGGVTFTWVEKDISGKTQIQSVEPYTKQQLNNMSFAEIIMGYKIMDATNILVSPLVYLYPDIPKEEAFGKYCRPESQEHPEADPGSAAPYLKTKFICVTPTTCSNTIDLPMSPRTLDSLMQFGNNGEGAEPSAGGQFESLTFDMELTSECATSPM
Procedure: MDA-MB-468 cells were treated with biotinylated BENDA (Bio-BENDA) in the presence or absence of an excess amount of free drugs for 4 h and then lysed in PhosphoSafe™ Extraction Reagent (Merck, Darmstadt, Germany). Lysate (200 μL) was precleared with a mixture of Protein G Plus/Protein A Agarose Suspension (EMD Millipore, Billerica, MA, USA) for 1 h at 4°C and protein A and G agarose were removed by centrifugation at 13,000 rpm for 10 min. The lysate (200 μL) was immunoprecipitated with STAT3 antibody (1 μL) overnight at 4°C on a shaker and the immunocomplex was captured by the addition of a Protein G Plus/Protein A Agarose Suspension (30 μL) slurry for 1 h at 4°C. Samples were washed five times with lysis buffer and then boiled four times in SDS-PAGE sample buffer and run on an SDS-PAGE gel. The protein was transferred to a nitrocellulose membrane. The membranes were blocked in 5% skim milk in TBS/0.1% Tween 20. They were then incubated with streptavidin-HRP diluted at 1:2000 in 1.5% skim milk in TBS (pH7.4)/0.1% Tween 20 overnight at 4°C. Immunoblots were developed by using a chemiluminescent substrate.

[3] = target: T3, cellular STAT1 in MDA-MB-468 cells (Homo sapiens, UniProt P42224); assay: Pull-down assay using Bio-BENDA, anti-STAT1 immunoprecipitation; assay type: cell-based; settings: 50 μM Bio-BENDA, 4 h
T3 construct: endogenous in cells; host or cells: MDA-MB-468
T3 sequence (P42224 whole entry): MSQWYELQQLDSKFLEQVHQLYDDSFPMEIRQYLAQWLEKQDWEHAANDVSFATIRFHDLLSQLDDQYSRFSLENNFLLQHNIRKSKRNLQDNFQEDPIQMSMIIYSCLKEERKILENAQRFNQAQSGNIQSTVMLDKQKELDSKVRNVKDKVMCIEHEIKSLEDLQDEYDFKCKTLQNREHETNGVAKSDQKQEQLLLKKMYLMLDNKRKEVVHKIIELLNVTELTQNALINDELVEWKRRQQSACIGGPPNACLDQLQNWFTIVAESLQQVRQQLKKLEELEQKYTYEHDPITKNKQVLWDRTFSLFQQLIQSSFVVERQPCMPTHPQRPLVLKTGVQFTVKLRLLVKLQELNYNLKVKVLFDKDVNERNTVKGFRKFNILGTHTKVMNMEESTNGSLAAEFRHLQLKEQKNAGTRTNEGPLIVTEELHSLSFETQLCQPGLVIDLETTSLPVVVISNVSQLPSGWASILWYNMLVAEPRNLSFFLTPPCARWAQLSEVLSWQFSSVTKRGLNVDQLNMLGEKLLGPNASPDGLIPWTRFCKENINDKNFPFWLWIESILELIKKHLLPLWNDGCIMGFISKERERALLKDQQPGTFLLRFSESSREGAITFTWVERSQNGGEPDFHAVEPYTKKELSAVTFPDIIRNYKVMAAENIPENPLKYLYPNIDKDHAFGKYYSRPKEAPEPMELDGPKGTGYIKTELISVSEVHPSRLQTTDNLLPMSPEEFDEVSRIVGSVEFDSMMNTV

[4] = system: MDA-MB-468 cells and MDA-MB-453 cells; set-up: method as in PMID 26010889; settings: cited from earlier work
[5] = target: T4, mutant recombinant human STAT3, Cys542 to alanine (human, UniProt P40763 1-770, Cys542 to alanine, biotin (Avi-tag; expressed in BirA-BL21 cells induced with 50 μM biotin)); assay: AlphaScreen or HTRF; 375 nM mutant recombinant STAT3 incubated with 100 μM BENDA in DMSO for 30 min, then the AlphaScreen SH2 binding assay with the phosphotyrosine peptide; settings: both partners purified
T4 construct: human STAT3, full-length cDNA, single point mutation by inverse PCR, in modified pET-28a(+); Expression and purification are described for the wild type; also called Cys542 mutant; mutant STAT3 His-Avi-pET28a (+); source: E. coli BirA-BL21, purified (Ni Sepharose, dialysis); not shown: Avi-tag, N-terminal, kept
T4 sequence (P40763 other isoform, or with tags, fused parts or gaps Cys542 to alanine | Cys542 to alanine | mutant): as the sequence (P40763 whole entry, the tested form may be a part) above, with C542A counted along it

[6] = target: T5, mutant recombinant human STAT3, C712A (human, UniProt P40763 1-770, C712A, biotin (Avi-tag; expressed in BirA-BL21 cells induced with 50 μM biotin)); assay: as above; settings: both partners purified
T5 construct: human STAT3, full-length cDNA, single point mutation by inverse PCR, in modified pET-28a(+); Expression and purification are described for the wild type; also called Cys712 mutant; mutant STAT3 His-Avi-pET28a (+); source: E. coli BirA-BL21, purified (Ni Sepharose, dialysis); not shown: Avi-tag, N-terminal, kept
T5 sequence (P40763 whole entry C712A): as the sequence (P40763 whole entry, the tested form may be a part) above, with C712A counted along it

[7] = target: T6, mutant recombinant human STAT3, Cys468 to alanine (human, UniProt P40763 1-770, Cys468 to alanine, biotin (Avi-tag; expressed in BirA-BL21 cells induced with 50 μM biotin)); assay: as above; settings: both partners purified
T6 construct: human STAT3, full-length cDNA, single point mutation by inverse PCR, in modified pET-28a(+); Expression and purification are described for the wild type; also called Cys468 mutant; mutant STAT3 His-Avi-pET28a (+); source: E. coli BirA-BL21, purified (Ni Sepharose, dialysis); not shown: Avi-tag, N-terminal, kept
T6 sequence (P40763 other isoform, or with tags, fused parts or gaps Cys468 to alanine | Cys468 to alanine | mutant): as the sequence (P40763 whole entry, the tested form may be a part) above, with C468A counted along it

[8] = target: T7, mutant recombinant human STAT3, C550A (human, UniProt P40763 1-770, C550A, biotin (Avi-tag; expressed in BirA-BL21 cells induced with 50 μM biotin)); assay: as above; settings: both partners purified
T7 construct: human STAT3, full-length cDNA, single point mutation by inverse PCR, in modified pET-28a(+); Expression and purification are described for the wild type; also called Cys550 mutant; mutant STAT3 His-Avi-pET28a (+); source: E. coli BirA-BL21, purified (Ni Sepharose, dialysis); not shown: Avi-tag, N-terminal, kept
T7 sequence (P40763 whole entry C550A): as the sequence (P40763 whole entry, the tested form may be a part) above, with C550A counted along it

[9] = target: T8, mutant recombinant human STAT3, Cys687 to alanine (human, UniProt P40763 1-770, Cys687 to alanine, biotin (Avi-tag; expressed in BirA-BL21 cells induced with 50 μM biotin)); assay: as above; settings: both partners purified
T8 construct: human STAT3, full-length cDNA, single point mutation by inverse PCR, in modified pET-28a(+); Expression and purification are described for the wild type; also called Cys687 mutant; mutant STAT3 His-Avi-pET28a (+); source: E. coli BirA-BL21, purified (Ni Sepharose, dialysis); not shown: Avi-tag, N-terminal, kept
T8 sequence (P40763 other isoform, or with tags, fused parts or gaps Cys687 to alanine | Cys687 to alanine | mutant): as the sequence (P40763 whole entry, the tested form may be a part) above, with C687A counted along it

[10] = target: T9, recombinant human STAT3 (signal transducer and activator of transcription 3) (human, UniProt P40763 1-770, biotin (Avi-tag; expressed in BirA-BL21 cells induced with 50 μM biotin)); assay: AlphaScreen or HTRF; 50 nM SH2-containing protein pre-incubated 15 min with BENDA in DMSO, then 50 nM FITC-pTyr peptide 90 min; streptavidin-coated donor beads and anti-FITC acceptor beads 90 min; 10 mM HEPES-NaOH pH 7.4, 50 mM NaCl, 1 mM EDTA, 0.1% NP-40, 10 ng/mL BSA, 25°C; settings: both partners purified
T9 construct: human STAT3, full-length cDNA from a human cDNA library, cloned into modified pET-28a(+); also called rhSTAT3; wild-type rhSTAT3; source: E. coli BirA-BL21, purified (Ni Sepharose, dialysis); not shown: Avi-tag, N-terminal, kept
T9 sequence (P40763 whole entry): as the sequence (P40763 whole entry, the tested form may be a part) above

Molecule: CCOC(=O)CCCc1nc2cc(N(CCCl)CCCl)ccc2n1C [BM1EE, BENDA ethyl ester]
- IC50 [1]: 6.1 µM

Molecule: Cn1c(CCCC(=O)OCCOCCOCCOCCNC(=O)CCC[C@@H]2SC[C@@H]3NC(=O)N[C@@H]32)nc2cc(N(CCCl)CCCl)ccc21 [Bio-BENDA, 13-Oxo-16-[(3aS,4S,6aR)-2-oxohexahydro-1H-thieno[3,4-d]imidazol-4-yl]-3,6,9-trioxa-12-azahexadecyl 4-{5-[bis(2-chloroethyl)amino]-1-methyl-1H-benzo[d]imidazol-2-yl}butanoate]
- Binding to cellular STAT3 (band by streptavidin-HRP after anti-STAT3 IP) [2]: the STAT3 band was observed
- Binding to cellular STAT1 (band by streptavidin-HRP after anti-STAT1 IP) [3]: no band

Molecule: C=C1C(=O)[C@]23C[C@H]1CC[C@H]2[C@@]12CO[C@]3(O)[C@@H](O)[C@@H]1C(C)(C)C=CC2=O [Eriocalyxin B]
- Growth inhibition of MDA-MB-468 versus MDA-MB-453 cells [4]: inhibit the growth of MDA-MB-468 cells more than that of the MDA-MB-453 cells

Molecule: O=[N+]([O-])c1ccc2c(c1)S(=O)(=O)C=C2 [Stattic]
- Growth inhibition of MDA-MB-468 versus MDA-MB-453 cells [4]: inhibit the growth of MDA-MB-468 cells more than that of the MDA-MB-453 cells

- binding result [5]: binds
- binding result [6]: binds
- binding result [7]: binds
- binding result [8]: binds
- binding result [9]: binds
- binding result [10]: binds
B1: 5-carboxyfluorescein (FITC)-GpYLPQTV, labeled Phospho-Tyr peptide probe for STAT3 (peptide)
peptide: G[pY]LPQTV
modifications: not fully specified (N-terminus)
notes: the leading G is not the natural residue there; also called phosphotyrosine peptide; pTyr peptide; source: synthetic peptide (NippiBiomatrix Laboratory)

From paper PMC5268383, “Inhibition of STAT3 by Anticancer Drug Bendamustine” (PLoS ONE, 2017)
